Measured values: patent JP2011115175A

Key:
[1] = biological target: CD28Ig (human) (UniProt P10747); experiment: ELISA on CD28Ig-coated plates, detected with anti-human kappa conjugate
[2] = biological target: ニワトリリゾチーム (chicken lysozyme) (chicken) (UniProt P00698); experiment: fluorescence quench titration; 200 nM Fab titrated with lysozyme in solution
[3] = biological target: ニワトリリゾチーム (chicken lysozyme) (chicken) (UniProt P00698); experiment: legend of Figure 7 (antigen binding graph, fluorescence quench titration)
[4] = biological target: CD28Ig (human) (UniProt P10747); experiment: legend of Figure 11 (antigen binding graph, ELISA)
[5] = biological target: ヒトグルタミン酸デカルボキシラーゼ65kDaアイソフォーム (human glutamic acid decarboxylase, GAD65) (human) (UniProt Q05329); experiment: immunoprecipitation of 35S-labelled GAD65 with Protein G-Sepharose; midpoint read by eye
Chain of UniProt Q05329 (Q05329 whole entry): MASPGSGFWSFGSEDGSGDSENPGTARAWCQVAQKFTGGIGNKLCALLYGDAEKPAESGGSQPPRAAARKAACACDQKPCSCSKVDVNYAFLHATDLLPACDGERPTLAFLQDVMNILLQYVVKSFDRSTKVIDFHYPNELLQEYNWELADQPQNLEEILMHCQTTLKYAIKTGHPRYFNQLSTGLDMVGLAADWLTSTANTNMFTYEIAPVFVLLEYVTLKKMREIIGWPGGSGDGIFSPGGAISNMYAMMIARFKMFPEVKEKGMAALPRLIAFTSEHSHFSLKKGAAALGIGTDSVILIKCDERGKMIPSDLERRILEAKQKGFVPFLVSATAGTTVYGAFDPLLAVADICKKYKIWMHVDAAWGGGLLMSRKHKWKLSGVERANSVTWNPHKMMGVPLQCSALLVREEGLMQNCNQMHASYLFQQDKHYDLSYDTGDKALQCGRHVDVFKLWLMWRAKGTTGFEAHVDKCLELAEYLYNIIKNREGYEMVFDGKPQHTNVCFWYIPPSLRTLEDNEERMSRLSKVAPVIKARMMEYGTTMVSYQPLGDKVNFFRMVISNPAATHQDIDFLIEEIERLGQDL

Chain of UniProt P00698 (P00698 19-147 limits assumed): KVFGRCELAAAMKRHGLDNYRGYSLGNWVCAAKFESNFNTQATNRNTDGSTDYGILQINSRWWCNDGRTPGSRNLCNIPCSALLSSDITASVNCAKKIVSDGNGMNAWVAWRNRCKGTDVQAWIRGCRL

マウス9.3 Fab (Fab of mouse 9.3 variable domains and human constant domains)
EC50 [1]: 20 nM

ヒト化D1.3 Fab (humanized D1.3 Fab, anti-chicken lysozyme)
Kd [2]: 23 nM | Ka [3]: > 1e+08 M⁻¹

B1: ヒト化抗ヒトCD28(Hu9.3)Fabフラグメント (Fab, from another filing, V domains shown)
VH: EVQLVQSGGGLVQPGGSLRLSCAGSGFTFSDYGVHWVRQAPGKGLEWVSAIWAGGGTNYASSVMGRFTISRDNAKNSLYLQMNSLRAEDMAVYYCARDKGYSYYYSMDYWGQGTLVTVSS
VL: DIVMTQSPDSLAVSLGERATINCRASESVEYYVTSLMAWYQQKPGQPPKLLIYAASNVESGVPDRFSGSGSGTNFSLTISSLQAEDVAVYYCQQSRKVPYTFGQGTKLEIKR
Ka [4]: > 1e+06 M⁻¹ | EC50 [1]: 630 nM

B2: マウスNGAD65 Fabフラグメント (mouse NGAD65 variable domains and constant domains) (Fab, from another filing, V domains shown)
VH: QVQLQQPGAELVKPGASVKMSCKASGYRFSSYNMHWVKQTPGQGLEWIGAIYPRSGDTSYNQKFKGKATLTADKSSSTAYMQLGSLTSEDSAVYYCVRSYDYDAPFAFWGQGTLVTVSA
VL: VLTQTPLSLPVSLGDQASISCRSSQSLEHNNGNTYLNWYLQKPGQSPQLLIYRVSNRFSGGLDRFSGSGSGTDFTLKISRVEAEDLGVYFCLQVTHVPFTFGSGTKLEIKR
EC50 [5]: 0.00036 nM
